Each block holds one binder with its values, some of them ahead of it.
Key:
[1] = biological target: T1, hIL27Ra-his (Origene, Catalog #TP307012) (human, UniProt Q6UWB1 33-516, limits assumed); experiment: SPR Biacore T200, hIL27Ra arm
T1 construct: Bought his-tagged cytokine receptor used as SPR analyte; also called human IL27 receptor subunit alpha; not shown: his tag
T1 sequence: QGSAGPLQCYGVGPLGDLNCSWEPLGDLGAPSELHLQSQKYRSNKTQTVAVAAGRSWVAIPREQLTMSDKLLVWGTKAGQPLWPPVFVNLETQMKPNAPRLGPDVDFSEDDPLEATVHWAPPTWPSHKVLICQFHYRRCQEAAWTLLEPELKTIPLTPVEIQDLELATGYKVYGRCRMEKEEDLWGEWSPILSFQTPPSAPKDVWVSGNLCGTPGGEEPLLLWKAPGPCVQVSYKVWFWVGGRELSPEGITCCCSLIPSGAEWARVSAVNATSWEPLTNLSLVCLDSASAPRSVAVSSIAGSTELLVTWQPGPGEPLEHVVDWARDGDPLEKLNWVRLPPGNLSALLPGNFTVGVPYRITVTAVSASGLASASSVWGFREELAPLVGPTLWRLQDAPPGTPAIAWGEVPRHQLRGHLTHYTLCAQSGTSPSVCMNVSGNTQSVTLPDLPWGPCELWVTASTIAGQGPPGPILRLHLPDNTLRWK

[2] = biological target: T1, hIL27Ra-his (Origene, Catalog #TP307012); experiment: SPR Biacore T200; ratio experimental/calculated Rmax
Experimental: (§1) All experiments were conducted in 10 mM Hepes, 150 mMv NaCl, 0.05% (v/v) Polysorbate 20 (PS20) and 3 mMv EDTA (HBS-EP+ buffer) on a Biacore® T200 instrument equipped with a Protein A chip (Cytiva). Mono-Fc VHH ligands were flowed at 5 μl/min for variable time ranging from 18 to 300 seconds, reaching the capture loads listed in the tables below.
(§2) Following ligand capture, injections of a 2-fold dilution series of his-tagged cytokine receptors typically comprising at least five concentrations between 1 μM and 1 nM were performed in either high performance or single cycle kinetics mode. Surface regeneration was achieved by flowing 10 mMv glycine-HCl, pH 1.5 (60 seconds, 50 μL/min). Buffer-subtracted sensograms were processed with Biacore® T200 Evaluation Software and globally fit with a 1:1 Langmuir binding model (bulk shift set to zero) to extract kinetics and affinity constants (ka, kd, KD). RMAX<100 RU indicates surface density compatible with kinetics analysis. Calculated Rmax were generated using the equation Rmax=Load (RU)×valency of ligand×(Molecular weight of analyte/Molecular weight of ligand. Surface activity was defined as the ratio experimental/calculated Rmax. See tables below for sample information and experimental results.

[3] = biological target: T1, hIL27Ra-his (Origene, Catalog #TP307012); experiment: SPR Biacore T200; mono-Fc VHH on Protein A chip, hIL27Ra-his analyte
Experimental: as §1, §2

[4] = biological target: T2, hGP130-his (Sino Biological, Catalog #10974) (human, UniProt P40189 23-619); experiment: SPR Biacore T200; ratio experimental/calculated Rmax
T2 construct: Bought his-tagged cytokine receptor used as SPR analyte; also called human gp130 receptor subunit; IL6 receptor beta subunit; not shown: his tag
T2 sequence: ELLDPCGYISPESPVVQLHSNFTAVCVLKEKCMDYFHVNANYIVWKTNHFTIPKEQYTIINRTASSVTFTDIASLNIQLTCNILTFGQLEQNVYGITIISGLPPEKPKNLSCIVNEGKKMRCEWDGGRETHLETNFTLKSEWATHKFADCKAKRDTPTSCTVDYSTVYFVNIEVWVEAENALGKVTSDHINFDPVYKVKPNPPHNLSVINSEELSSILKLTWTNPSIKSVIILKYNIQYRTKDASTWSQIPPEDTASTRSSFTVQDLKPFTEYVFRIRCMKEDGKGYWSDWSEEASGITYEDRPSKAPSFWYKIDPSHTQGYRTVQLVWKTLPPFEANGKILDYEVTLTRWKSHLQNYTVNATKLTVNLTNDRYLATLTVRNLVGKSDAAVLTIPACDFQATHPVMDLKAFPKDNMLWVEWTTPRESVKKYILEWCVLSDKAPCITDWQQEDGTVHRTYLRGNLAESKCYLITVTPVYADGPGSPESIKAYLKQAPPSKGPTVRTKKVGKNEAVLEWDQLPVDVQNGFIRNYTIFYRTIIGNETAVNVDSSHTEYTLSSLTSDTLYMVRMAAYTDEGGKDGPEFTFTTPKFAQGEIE
Experimental: as §1, §2

[5] = biological target: T2, hGP130-his (Sino Biological, Catalog …); experiment: SPR Biacore T200; mono-Fc VHH on Protein A chip, hGP130-his analyte
Experimental: as §1, §2

[6] = biological target: T2, hGP130-his (Sino Biological, Catalog …); experiment: SPR Biacore T200, hgp130 arm
Experimental: as §1, §2

B1: hIL27Ra_VHH19 (VHH)
VHH: QVQLQESGGGSVQAGGSLRLSCRASGSTYSNYCLGWFRQITGKEREGVAVINWVGGMLYFADSVKGRFTVSQDQAKNTVYLQMNSLKPEDTAMYYCAAESVSSFSCGGWLTRPDRVPYWGQGTQVTVSS
- Kd [1]: 5.2 nM
- koff [1]: 0.00076 s⁻¹
- kon [1]: 150000 M⁻¹ s⁻¹

B2: 25-DR602 (SEQ ID NO. 250), anti-hIL27Ra Mono-Fc VHH (Fc fusion)
chain: QVQLQESGGGSVQAGGSLRLSCRASGSTYSNYCLGWFRQITGKEREGVAVINWVGGMLYFADSVKGRFTVSQDQAKNTVYLQMNSLKPEDTAMYYCAAESVSSFSCGGWLTRPDRVPYWGQGTQVTVSS
notes: Mono-Fc VHH ligand captured on a Protein A chip; not shown: mono-Fc part
- Surface Activity [2]: 20%
- Kd [3]: 5.2 nM
- koff [3]: 0.00076 s⁻¹
- kon [3]: 150000 M⁻¹ s⁻¹

B3: hIL27Ra_VHH9 (VHH)
VHH: QVQLQESGGGSVQSGGSLRLSCAASGFTYSTSNSWMAWFRQAPGKEREGVAAIYTVGGSIFYADSVRGRFTISQDATKNMFYLQMNTLKPEDTAMYYCAAASGRLRGKWFWPYEYNYWGQGTQVTVSS
- Kd [1]: 4.5 nM
- koff [1]: 0.00041 s⁻¹
- kon [1]: 91000 M⁻¹ s⁻¹

B5: hIL27Ra_VHH15 (VHH)
VHH: QVQLQESGGGSVQAGGSLRLSCVASGYVSCDYFLPSWYRQAPGKEREFVSIIDGTGSTSYAASVKGRFTASQDKGKNIAYLQMNTLKPEDTAMYYCKASCVRGRAISEYWGQGTQVTVSS
- Kd [1]: 17 nM
- koff [1]: 0.001 s⁻¹
- kon [1]: 59000 M⁻¹ s⁻¹

B9: 26-DR603 (SEQ ID NO. 251), anti-hIL27Ra Mono-Fc VHH (Fc fusion)
chain: QVQLQESGGGLVQPGGSLRLSCAASGFTFSLSSMSWVRQAPGKGLEWVSAISSGGASTYYTDSVKGRFTISRDNAKNMLYLQLNSLKTEDTAMYYCAKGGSGYGDASRMTSPGSQGTQVTVSS
notes: as for B2
- Surface Activity [2]: 18%
- Kd [3]: 6.1 nM
- koff [3]: 0.00077 s⁻¹
- kon [3]: 130000 M⁻¹ s⁻¹

B11: 14-DR591 (SEQ ID NO. 232), anti-hGP130 Mono-Fc VHH (Fc fusion)
chain: QVQLQESGGGSVQAGGSLRLSCTASGAIASGYIDSRWCMAWFRQAPGKEREGVAAIWPGGGLTVYADSVKGRFTISRDHAKNTLYLQMNNLKPEDTAMYYCAAGSPRMCPSLEFGFDYWGQGTQVTVSS
notes: Tested as Mono-Fc VHH ligand captured on a Protein A chip; not shown: mono-Fc part
- Surface Activity [4]: 21%
- Kd [5]: 33 nM
- koff [5]: 0.0019 s⁻¹
- kon [5]: 59000 M⁻¹ s⁻¹
- Kd [6]: 33 nM
- koff [6]: 0.0019 s⁻¹
- kon [6]: 59000 M⁻¹ s⁻¹

B13: 18-DR595 (SEQ ID NO. 236), anti-hGP130 Mono-Fc VHH (Fc fusion)
chain: QVQLQESGGGSVQAGGSLTLSCAASEYAYSTCNMGWYRQAPGKERELVSAFISDGSTYYADSVKGRFTITRDNAKNTVYLQMNSLKPEDTAIYYCSANCYRRLRNYWGQGTQVTVSS
notes: as for B2
- Surface Activity [4]: 33%
- Kd [5]: 41 nM
- koff [5]: 0.0073 s⁻¹
- kon [5]: 180000 M⁻¹ s⁻¹
- Kd [6]: 41 nM
- koff [6]: 0.0073 s⁻¹
- kon [6]: 180000 M⁻¹ s⁻¹

B14: hIL27Ra_VHH1 (VHH)
VHH: QVQLQESGGGLVQPGGSLRLSCAASGFTFSSYPMSWVRQAPGKGLEWISTISAGGDTTLYADSVKGRFTSSRDNAKNTLYLQLNSLKTEDAAIYYCAKRIDCNSGYCYRRNYWGQGTQVTVSS
- Kd [1]: 19 nM
- koff [1]: 0.00057 s⁻¹
- kon [1]: 30000 M⁻¹ s⁻¹

B16: 15-DR592 (SEQ ID NO. 233), anti-hGP130 Mono-Fc VHH (Fc fusion)
chain: QVQLQESGGGSVQAGGSLRLSCTAPGFTSNSCGMDWYRQAPGKEREFVSSISTDGTTGYADSVKGRFTISKDKAKDTVYLQMNSLKPEDTGMYSCKTKDGTIATMELCDFGYWGQGTQVTVSS
notes: as for B2
- Surface Activity [4]: 33%
- Kd [5]: 38 nM
- koff [5]: 0.0059 s⁻¹
- kon [5]: 160000 M⁻¹ s⁻¹
- Kd [6]: 38 nM
- koff [6]: 0.0059 s⁻¹
- kon [6]: 160000 M⁻¹ s⁻¹

Second part, the binder after the results:

- Surface Activity [2]: 13%
- Kd [3]: 17 nM
- koff [3]: 0.001 s⁻¹
- kon [3]: 59000 M⁻¹ s⁻¹
B4: 23-DR600 (SEQ ID NO. 248), anti-hIL27Ra Mono-Fc VHH (Fc fusion)
chain: QVQLQESGGGSVQSGGSLRLSCAASGFTYSTSNSWMAWFRQAPGKEREGVAAIYTVGGSIFYADSVRGRFTISQDATKNMFYLQMNTLKPEDTAMYYCAAASGRLRGKWFWPYEYNYWGQGTQVTVSS
notes: as for B2

- Surface Activity [2]: 12%
- Kd [3]: 4.5 nM
- koff [3]: 0.00041 s⁻¹
- kon [3]: 91000 M⁻¹ s⁻¹
B6: 24-DR601 (SEQ ID NO. 249), anti-hIL27Ra Mono-Fc VHH (Fc fusion)
chain: QVQLQESGGGSVQAGGSLRLSCVASGYVSCDYFLPSWYRQAPGKEREFVSIIDGTGSTSYAASVKGRFTASQDKGKNIAYLQMNTLKPEDTAMYYCKASCVRGRAISEYWGQGTQVTVSS
notes: as for B2

- Surface Activity [4]: 20%
- Kd [5]: 82 nM
- koff [5]: 0.021 s⁻¹
- kon [5]: 250000 M⁻¹ s⁻¹
- Kd [6]: 82 nM
- koff [6]: 0.021 s⁻¹
- kon [6]: 250000 M⁻¹ s⁻¹
B7: 16-DR593 (SEQ ID NO. 234), anti-hGP130 Mono-Fc VHH (Fc fusion)
chain: QVQLQESGGGSVQAGGSLRLSCAASGYPYSNGYMGWFRQAPGKEREGVATIYTGDGRTYYADSVKGRFTISRDNAKNTVDLQMSSLKPEDTAMYYCAARAAPLYSSGSPLTRARYNVWGQGTQVTVSS
notes: as for B2

- Kd [1]: 6.1 nM
- koff [1]: 0.00077 s⁻¹
- kon [1]: 130000 M⁻¹ s⁻¹
B8: hIL27Ra_VHH21 (VHH)
VHH: QVQLQESGGGLVQPGGSLRLSCAASGFTFSLSSMSWVRQAPGKGLEWVSAISSGGASTYYTDSVKGRFTISRDNAKNMLYLQLNSLKTEDTAMYYCAKGGSGYGDASRMTSPGSQGTQVTVSS

- Surface Activity [4]: 21%
- Kd [5]: 58 nM
- koff [5]: 0.0095 s⁻¹
- kon [5]: 160000 M⁻¹ s⁻¹
- Kd [6]: 58 nM
- koff [6]: 0.0095 s⁻¹
- kon [6]: 160000 M⁻¹ s⁻¹
B10: 17-DR594 (SEQ ID NO. 235), anti-hGP130 Mono-Fc VHH (Fc fusion)
chain: QVQLQESGGGSVQAGGSLRLSCVASASTYCTYDMHWYRQAPGKGREFVSAIDSDGTTRYADSVKGRFTISQGTAKNTVYLQMNSLQPEDTAMYYCKTVCVVGSRWSDYWGQGTQVTVSS
notes: as for B2

- Surface Activity [4]: 28%
- Kd [5]: 44 nM
- koff [5]: 0.0082 s⁻¹
- kon [5]: 190000 M⁻¹ s⁻¹
- Kd [6]: 44 nM
- koff [6]: 0.0082 s⁻¹
- kon [6]: 190000 M⁻¹ s⁻¹
B12: 19-DR596 (SEQ ID NO. 237), anti-hGP130 Mono-Fc VHH (Fc fusion)
chain: QVQLQESGGGLVQPGGSLRLSCTASGLTFDDSVMGWFRQAPGKGREAVSCISSSGANAFYADSVKGRFTISRDNAKNTLYLQMNSLKPEDTATYYCKRGHACAGYYPIPYDDYWGQGTQVTVSS
notes: as for B2

- Surface Activity [2]: 4%
- Kd [3]: 19 nM
- koff [3]: 0.00057 s⁻¹
- kon [3]: 30000 M⁻¹ s⁻¹
B15: 20-DR597 (SEQ ID NO. 245), anti-hIL27Ra Mono-Fc VHH (Fc fusion)
chain: QVQLQESGGGLVQPGGSLRLSCAASGFTFSSYPMSWVRQAPGKGLEWISTISAGGDTTLYADSVKGRFTSSRDNAKNTLYLQLNSLKTEDAAIYYCAKRIDCNSGYCYRRNYWGQGTQVTVSS
notes: as for B2

Source: patent US20240002542A1 (SYNTHEKINE, published 2024)
